{"source": "patent US20150267232A1", "about": "“IN VIVO AND IN VITRO CARBENE INSERTION AND NITRENE TRANSFER REACTIONS CATALYZED BY HEME ENZYMES” (California Institute of Technology, priority 2012, published 2015)", "assay_type_in_all_cases": "biochemical", "key": {"[1]": {"assay": "N—H insertion, aniline with ethyl diazo acetate (EDA)", "settings": "protein 10 uM, EDA 8.5 mM, aniline 20 mM, Na2S2O4 10 mM, 12 h; for % Yield: product 4.3", "description": "We have found a variety of P450 variants to be general catalysts for carbenoid N—H insertion. We combined aniline with EDA in the presence of a reductant (Na2S2O4) under argon atmosphere and tested the mixture with seven P450BM3 variants previously identified as competent catalysts for cyclopropanation (Coelho, P. et al., Science. 2013, 339, 307-310). In choosing this set of P450s, we hypothesized that cyclopropanation activity could correlate with ability to generate the iron-carbenoid intermediate that is also necessary for N—H insertion. Whereas wild type BM3 (WT-BM3 (SEQ ID NO:1), Table 20, entry 1) provided only trace amounts of the desired product (4.3), a few variants gave 4.3 in good yields after 12 h at room temperature. In particular, variant H2-5-F10 which is derived from a thermostable P450BM3 lineage (Lewis, J. C. et al. ChemBioChem, 2010, 11, 2502-2505) and contains 15 mutation from WT-BM3 (SEQ ID NO:1), formed 4.3 in 47% yield and 473 turnovers (TTN) using 0.1% protein relative to EDA (entry 7). […] In contrast, when 1 mol % of the isolated hemin prosthetic group was used as catalyst, the single and double insertion products were produced in a 3.5 to 1 ratio (with a total product yield of 51%).\nA representative procedure for P450-catalyzed N—H insertion is as follows. To an unsealed crimp vial, 60 μL of a P450 solution (67 or 133 μM) was added and the vial was sealed. A 12.5 mM solution of sodium dithionite in phosphate buffer (0.1 M, pH=8.0) was degassed by bubbling with argon in a 6 mL crimp-sealed vial. The headspace of the 2 mL vials containing P450 solution were flushed with argon (no bubbling). The buffer/dithionite solution (360 μL) was then added to each reaction vial via syringe, and the gas lines were disconnected from the vials. 10 μL of an 800 mM stock of aniline was added via a glass syringe, followed by 10 μL of a 340 mM stock of EDA (both stocks in MeOH). The reaction vials were then placed in a tray on a plate shaker and left to shake at 40 rpm. The final concentrations of the reagents were typically: 20 mM aniline, 8.5 mM EDA, 10 mM Na2S2O4, and 10 or 20 μM P450. After 12 h at 25° C., the vials were removed from the shaker and uncapped and 1 mL of cyclohexane was added, followed by 20 μL of a 20 mM solution of phenethyl alcohol (internal standard). The mixture was transferred to a 1.5 mL Eppendorf tube and vortexed and centrifuged (13,000×g, 1 min.). The organic layer was dried over sodium sulfate if necessary then analyzed by GC, with comparison to an authentically prepared sample that has been verified by proton NMR ([…], Varian, CDCl3).\nSubstitution is well-tolerated on the aniline partner on both the ortho and para positions. Reactions were analyzed by a Shimadzu GC with FID detector and J&W HP-5 column (30 m×0.32 mm, 0.25 μm film) and calibrated to an independently prepared sample of each product using phenethyl alcohol as internal standard. Reaction of aniline and EDA was also performed in milligram scale without any organic cosolvent to provide 4.3 in 65% isolated yield.\nCalibration curves were plotted as follows. Yields of N—H insertion products were determined using calibration curves made with independently synthesized standards that have been verified by proton NMR, with comparison to known literature data (Baumann, L. K. et al. Organometallics. 2007, 26, 3995-4002; Anding, B. J. et al. Organometallics. 2013, 32, 2599-2607). Two stock solutions of product were made at 160 mM and 40 mM. To four or five samples containing 380 μL of buffer, product was added from either of the stock solutions such at a final concentration of 0.5-8.0 mM in 400 μL was obtained. 20 μL of internal standard was added to each eppendorf tube, then 1 mL of cyclohexane was added and the tubes were vortexed and centrifuged (13,000 ×g, 30 seconds). The organic layer was then analyzed by GC. The ratio of the areas under the internal standard and product peaks were plotted against the concentration for each solution. […]"}, "[2]": {"assay": "Small-scale anaerobic C—H amination with purified enzymes, azide 1", "settings": "catalyst loading 0.5 mol %; NADPH; anaerobic", "protocol": "Activities are presented in TTN. […] Yields and enantioselectivies determined by HPLC analysis. * (S−R)/(S+R). nd=not determined.\nEnzymes used as purified catalysts were expressed as previously described (Lewis, J. C. et al., Proc. Natl. Acad. Sci. U.S.A. 106, 16550-16555 (2009)), and were purified by anion-exchange chromatography (for holoenzymes) or Ni-NTA chromatography (for isolated heme domains). Concentrations of P450 or P411 enzymes were determined as previously reported (Omura, T. & Sato, R., J. Biol. Chem. 239, 2370-2378 (1964); Vatsis, K. P. et al., J. Inorg. Biochem. 91, 542-553 (2002)). Small-scale reactions (400 μL) were conducted in 2 mL crimp vials containing degassed buffer (0.1 M potassium phosphate pH 8.0), enzyme (0.1-0.5% catalyst loading) and oxygen depletion system (10× stock solution containing 14,000 U/mL catalase, 1,000 U/mL glucose oxidase dissolved in 0.1 M KPi pH 8.0). Enzyme (P450 or P411) solution and oxygen depletion mixture were added to the vial with a small stir bar before crimp-sealing. […] Reactions were stirred at room temperature for 24 h under positive argon pressure.\nSmall-scale reactions (400 μL) were conducted in 2 mL crimp vials (Agilent Technologies, San Diego, Calif.) containing buffer (0.1 M potassium phosphate pH 8.0), enzyme (0.1-0.5% catalyst loading) and oxygen depletion system (10× stock solution containing 14,000 U/mL catalase, 1,000 U/mL glucose oxidase dissolved in 0.1 M KPi pH 8.0). Enzyme (P450 or P411) solution and oxygen depletion mixture were added to the vial with a small stir bar before crimp-sealing. […] In the meantime, the headspace of the sealed 2 mL reaction vial with the P450 solution was made anaerobic by flushing argon over the protein solution (with no bubbling). The buffer/reductant/glucose solution (270 μL) was syringed into the reaction vial with continuous argon purge of the vial headspace. An arylsulfonyl azide solution in DMSO (10 μL, 80 mM) was added to the reaction vial via a glass syringe, and the reaction was left stirring for 24 h at room temperature under positive argon pressure. […] Reactions were quenched by adding 30 μL 3 M HCl under argon. To the vials were then added acetonitrile (430 uL) and internal standard (o-toluenesulfonamide 10 mM in 50% acetonitrile 50% water, 1 mM final concentration). This mixture was then transferred to a microcentrifuge tube, and centrifuged at 17,000×g for 10 minutes. A portion (20 μL) of the supernatant was then analyzed by HPLC. For LC-MS analysis, the quenched reaction mixture was extracted twice with ethyl acetate (2×350 μL), dried under a light argon stream and resuspended in 50% water-acetonitrile (100 μL). For chiral HPLC the reactions were extracted as above with ethyl acetate, dried and resuspended in DMSO (100 μL) and then C18 purified as described above. The C18 purified material was dried, and resuspended in acetonitrile, and then injected onto the chiral HPLC system for analysis. Sultam formation was quantified comparison of integrated peak areas of internal standard and sultam at 220 nm to a calibration curve made using synthetically produced sultam and internal standard.\nPurified enzymes were screened for activity in small scale reactions (400 μL) under anaerobic conditions as described above. Reactions were carried out using 0.5% mol of enzyme (10 μM) with respect to the triethylsulfonyl azide substrate 1 (2 mM). Standard reaction conditions described above were employed. Diethyl benzosultam product 3 (FIG. 18) was analyzed and quantified by reversed-phase HPLC (see above).\nSmall-scale reactions (400 μL total volume) were set up and worked up. Control reactions were performed with both the holoenzyme (BM3 with covalently linked reductase domain) and the isolated heme domain. […] Reactions of the complete system with heme domain (CS heme) included 2 mM Na2S2O4 rather than NADPH unless otherwise indicated in the table. […]"}, "[3]": {"assay": "P450BM3 compilation plate screen (GC, cyclopropane peaks)", "settings": "P450BM3 variants"}}, "data": [{"molecule": "BM3-CIS: 9-10A TS + F87V, T268A (protein, listed as Bacillus megaterium, cytochrome P450NADPH-P-450 reductase precursor, cytochrome P450 (BM3), CYP102A1, 9-10A TS + F87V, T268A) TIKEMPQPKTFGELKNLPLLNTDKPVQALMKIADELGEIFKFEAPGRVTRYLSSQRLIKEACDESRFDKNLSQALKFARDFAGDGLVTSWTHEKNWKKAHNILLPSFSQQAMKGYHAMMVDIAVQLVQKWERLNADEHIEVSEDMTRLTLDTIGLCGFNYRFNSFYRDQPHPFIISMVRALDEVMNKLQRANPDDPAYDENKRQFQEDIKVMNDLVDKIIADRKARGEQSDDLLTQMLNGKDPETGEPLDDGNIRYQIITFLIAGHEATSGLLSFALYFLVKNPHVLQKVAEEAARVLVDPVPSYKQVKQLKYVGMVLNEALRLWPTAPAFSLYAKEDTVLGGEYPLEKGDEVMVLIPQLHRDKTVWGDDVEEFRPERFENPSAIPQHAFKPFGNGQRACIGQQFALHEATLVLGMMLKHFDFEDHTNYELDIKETLTLKPKGFVVKAKSKKIPLGGIPSPSTEQSAKKVRKKAENAHNTPLLVLYGSNMGTAEGTARDLADIAMSKGFAPQVATLDSHAGNLPREGAVLIVTASYNGHPPDNAKQFVDWLDQASADEVKGVRYSVFGCGDKNWATTYQKVPAFIDETLAAKGAENIADRGEADASDDFEGTYEEWREHMWSDVAAYFNLDIENSEDNKSTLSLQFVDSAADMPLAKMHGAFSTNVVASKELQQPGSARSTRHLEIELPKEASYQEGDHLGVIPRNYEGIVNRVTARFGLDASQQIRLEAEEEKLAHLPLAKTVSVEELLQYVELQDPVTRTQLRAMAAKTVCPPHKVELEALLEKQAYKEQVLAKRLTMLELLEKYPACEMKFSEFIALLPSIRPRYYSISSSPRVDEKQASITVSVVSGEAWSGYGEYKGIASNYLAELQEGDTITCFISTPQSEFTLPKDPETPLIMVGPGTGVAPFRGFVQARKQLKEQGQSLGEAHLYFGCRSPHEDYLYQEELENAQSEGIITLHTAFSRMPNQPKTYVQHVMEQDGKKLIELLDQGAHFYICGDGSQMAPAVEATLMKSYADVHQVSEADARLWLQQLEEKGRYAKDVWAG", "values": [{"measurement": "TTn", "setting": "[1]", "value": 363}, {"measurement": "% Yield", "setting": "[1]", "value": 36, "unit": "%"}, {"measurement": "TTN (C—H amination product 3)", "setting": "[2]", "value": 9}]}, {"molecule": "H2-4-D4: 9-10A TS + F87V, L75A, M177A, L181A, T268A, L437A (protein, listed as Bacillus megaterium, cytochrome P450NADPH-P-450 reductase precursor, cytochrome P450 (BM3), CYP102A1, 9-10A TS + F87V, L75A, M177A, L181A, T268A, L437A) TIKEMPQPKTFGELKNLPLLNTDKPVQALMKIADELGEIFKFEAPGRVTRYLSSQRLIKEACDESRFDKNLSQAAKFARDFAGDGLVTSWTHEKNWKKAHNILLPSFSQQAMKGYHAMMVDIAVQLVQKWERLNADEHIEVSEDMTRLTLDTIGLCGFNYRFNSFYRDQPHPFIISAVRAADEVMNKLQRANPDDPAYDENKRQFQEDIKVMNDLVDKIIADRKARGEQSDDLLTQMLNGKDPETGEPLDDGNIRYQIITFLIAGHEATSGLLSFALYFLVKNPHVLQKVAEEAARVLVDPVPSYKQVKQLKYVGMVLNEALRLWPTAPAFSLYAKEDTVLGGEYPLEKGDEVMVLIPQLHRDKTVWGDDVEEFRPERFENPSAIPQHAFKPFGNGQRACIGQQFALHEATLVLGMMLKHFDFEDHTNYELDIKETATLKPKGFVVKAKSKKIPLGGIPSPSTEQSAKKVRKKAENAHNTPLLVLYGSNMGTAEGTARDLADIAMSKGFAPQVATLDSHAGNLPREGAVLIVTASYNGHPPDNAKQFVDWLDQASADEVKGVRYSVFGCGDKNWATTYQKVPAFIDETLAAKGAENIADRGEADASDDFEGTYEEWREHMWSDVAAYFNLDIENSEDNKSTLSLQFVDSAADMPLAKMHGAFSTNVVASKELQQPGSARSTRHLEIELPKEASYQEGDHLGVIPRNYEGIVNRVTARFGLDASQQIRLEAEEEKLAHLPLAKTVSVEELLQYVELQDPVTRTQLRAMAAKTVCPPHKVELEALLEKQAYKEQVLAKRLTMLELLEKYPACEMKFSEFIALLPSIRPRYYSISSSPRVDEKQASITVSVVSGEAWSGYGEYKGIASNYLAELQEGDTITCFISTPQSEFTLPKDPETPLIMVGPGTGVAPFRGFVQARKQLKEQGQSLGEAHLYFGCRSPHEDYLYQEELENAQSEGIITLHTAFSRMPNQPKTYVQHVMEQDGKKLIELLDQGAHFYICGDGSQMAPAVEATLMKSYADVHQVSEADARLWLQQLEEKGRYAKDVWAG", "values": [{"measurement": "TTn", "setting": "[1]", "value": 340}, {"measurement": "% Yield", "setting": "[1]", "value": 34, "unit": "%"}, {"measurement": "ee (cis)", "setting": "[3]; (R,S)-(S,R), chiral β-CDX GC", "value": "−84"}, {"measurement": "de", "setting": "[3]; diastereomeric excess = ([cis] − [trans])/([cis] + [trans])", "value": 57}, {"measurement": "Absolute activity", "setting": "[3]; sum of the area of the cyclopropane peaks over the area of the internal standard", "value": 0.05244}]}]}
